Laboratory results from PMC5503682.

What was measured:
[1] = biological target: SP6 tailspike protein gp47 (bacteriophage SP6); experiment: cryo-EM structure
[2] = biological target: SP6 tailspike protein gp46 (bacteriophage SP6); experiment: cryo-EM structure

“SP6 tailspike protein gp47 (natural protein)” was tested, and the stoichiometry N [1] was 3.

Substance “SP6 tailspike protein gp46 (natural protein)” has a stoichiometry N [2] of 3.
